Here are results for 99 substances from the supplement of paper PMC11502859.

The series relates to HEK293T. Description: median enrichment of reporter reads in eGFP-reduced (low/intermediate) vs eGFP-high sorted cells (eGFP-extension fusion abundance) (ratio); higher = stronger loss of eGFP-fusion protein abundance (more destabilising extension).
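Further: lentiviral eGFP-IRES-mCherry reporter pool sorted by FACS 96 h post-transduction, gated on mCherry-high cells, Illumina read counts normalized per million, median across four biological replicates.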

LVTGYVKSFNVVLKSKGLLITDSRIMCS [FEM1B]: the median enrichment came to 11.

With YKPRDGGCLAMAGR [DMRTC2], the median enrichment turned out to be 0.676.

QQLRLHQRQHTKKL [BCAS3]: the median enrichment was 1.16.

For the substance TTTTTTTTTT [Thr10], the median enrichment was 0.379.

On to “WPLDVGKPCGPPLITSSPRMTAEPQASGAGLMYPNLGQHDCRSIQSLPAPSMKGPPKTVLGTQCVAGSPPS [MINDY4]”, for which the median enrichment stood at 0.736.

On to WSLTRSLISRSTCVFIPPGN [FLT1], for which the median enrichment was found to be 4.28.

“VSSFLLVFFILFSFHQPSCILALQRDRDRSSAQGFSLPLFIMGGGYHPPSQSCEESGTSFFPTSLFPHSFLSPSGLSFPYTLT [NOTCH3]”: the median enrichment is 5.94.

Consider “SMLLPGLQKLHGHSSVIGLSLITKITAQDHLPEKHPLA [PLCB1]”, for which the median enrichment came to 19.1.

As to “WAPLPPTPYQLQSGGFHAQMALGVTSSFACGP [TPGS2]”, the median enrichment came to 10.1.

With “SGARLWDRPGPASGGDPGSGLGSPDLEACPSRASQD [CEBPA]”, the median enrichment was 0.648.

In the case of “RRVQRTCSSLGEEAPLKNSPPGTQLQPSGQAAGRRQRQREETLALTPSRVVIFGFAHHPGLPDGTLL [C12orf49]”, the median enrichment was 11.7.

As to “RRINLQRSRQDDLAAWGLLSPRNSHVGFPLPGWPLDLSSKPFLTSS [CHI3L2]”, the median enrichment worked out at 6.12.

In the case of LFLNALPHIFRKSRELLP [OR5AU1], the median enrichment is 9.77.

In the case of “GLKFCKVLRGPEHVSATRGSGQHCVLRLVSYLRLPSICVQRPRLQPSQHSAGSHAPCPHPGQQTPARVCAPSDCTPALITHRH [SLC29A4]”, the median enrichment amounted to 5.42.

With KKKKKKKKKK [Lys10], the median enrichment was determined as 1.08.

For the substance YKCEECGKAFKWSSHLTIH [ZNF93], the median enrichment is 6.32.

“LWAHHKDTSSLCRHHPAIESGGPCWSLWTYSSRPEKSLALELNSLDCTITTTYELRDYEGLFRGYESEPLFLEL [TMEM177]”: the median enrichment came out at 9.96.

SWVCAQPFKAAGSTT [TRIM45]: the median enrichment was found to be 4.99.

As for RVT [OR2M3], the median enrichment was determined as 0.571.

For YYYYYYY [Tyr07], the median enrichment worked out at 3.18.

Consider YIPVSIQKSNKKFSVKCAILLCVL [RPL11], for which the median enrichment was 0.764.

WWF [LRRCC1]: the median enrichment is 1.79.

“QPPARQRGHRRASPECRPWVAGPGSLVPPGGHRHRLAWQAGPLCHPLLGACRPFPSTPQVFQALLPQFPKWNHLTSAAPDLPG [SECTM1]”: the median enrichment came to 4.68.

As to “WGLRPHAPSHAVHPFSQVPNGPGSQDPGPSQNLCPPCP [SARDH]”, the median enrichment was 9.03.

Consider KRL [CYP17A1], for which the median enrichment came to 0.493.

“KNAPSDLASKKSCSVPCVLSFKGIFRINSDLEDSSVLQRLAFIFIVIMEMLSFILSYIRKKGVMQLISISLGNALVLFSSFLV [CREB5]”: the median enrichment was 15.5.

With “SSCCHQLALWPRARCLPFMFPHLQSELVVPDDLRSHDLLTCPMILYFVGRSIKQLLLLLCANHSCNFCSAYLPLFEKHAKGSF [ADAMTSL1]”, the median enrichment stood at 4.11.

Turning to QKVPLANCLEAQHNPKALFR [HIST1H1E], the median enrichment is 2.26.

Turning to YRRQRAWCDLVGSGNGRKRSPP [BTBD9], the median enrichment is 6.86.

Regarding “SDPTSPSAFHWLCHGLYKQIIFPLFKIKSPNENLGM [PRSS37]”, the median enrichment was 5.12.

As for QCYLVSF [TRMT10A], the median enrichment was 4.82.

Consider “WNEPWSPLQSSPWDRDVAGQNSQLCVCVFRLIGNSKSLLPAPSKLDGQWSGIETVV [IL18RAP]”, for which the median enrichment amounted to 5.03.

Consider RVAYFMQS [PDE5A], for which the median enrichment was 7.9.

Regarding SSNLF [ADPRM], the median enrichment is 0.584.

Take FFFFFFFF [Phe08]: the median enrichment is 9.45.

As for YDHPTTRSAANSGLSLGVAPSLLLPLN [TRIB3], the median enrichment amounted to 6.29.

YDVMLAGSPPLDPDSYG [SH3GL2]: the median enrichment was 0.593.

For the substance WGEPQTLRES [C7orf61], the median enrichment amounted to 0.458.

For LNRQDRLWERGSFHKRKMVGLFPE [C10orf53], the median enrichment was determined as 7.23.

With CACPHPPSSLPSC [PADI1], the median enrichment is 0.421.

Consider SISPSC [OR5AK2], for which the median enrichment is 0.461.

Take LRVAFFLL [GTF2A1]: the median enrichment came to 6.78.

On to LGSWRHWRGQEG [Degron KLHDC3], for which the median enrichment was 8.96.

With “GQRQRVLPKPLLPLWMLSLTLTHHCASLQTPRAQDWARPRDSHPFPSWEELACLATDSVSSNWLKWALPRVQLCGFYHA [IQGAP3]”, the median enrichment stood at 15.7.

Turning to “WGGPNLDSFPALGHRRPGSSARQAWARRAPGRALSAAGARPRTSAGTRESLLGRSVNKPFFLLFFKNCFSH [DUOXA2]”, the median enrichment came out at 5.58.

Take CGACYGLNCAPK [ZNF81]: the median enrichment was 1.07.

Consider “EATKRPGFSSCCHQLALWPRARCLPFMFPHLQSELVVPDDLRSHDLLTCPMILYFVGRSIKQLLLLLCANHSCNFCSAYLPLF [ADAMTSL1]”, for which the median enrichment was 5.

As for SDPAGSINLDAWTL [MYL5], the median enrichment was found to be 0.467.

Consider RVTKKTMHHKIAQSSAEQFSGDPWTQ [CXCL6], for which the median enrichment was 0.284.

In the case of YAVQSSFSGA [NLRP8], the median enrichment was 5.86.

As for WRFLLKLTLFHLSF [VHL], the median enrichment was determined as 9.11.

Regarding LSQTSFYIREPFQYSESETPA [ZNF12], the median enrichment was determined as 3.12.

As for KVKP [TRPC5], the median enrichment was 0.338.

For “YCLRGRLAASPAPPDLAPRAAAGAAACPGPPLRPASSRRPGAQPCAAEDSRDWRRPRPATAGARGHLPGLLTLSPHWEWAPRG [TMUB1]”, the median enrichment was found to be 5.27.

Take WLQTC [RAB39A]: the median enrichment came out at 5.31.

For QVLSPNNFFLSEVKGLKISWK [ENOSF1], the median enrichment was determined as 10.9.

Turning to YEHLDQVEKGTLSLVCGKQHLQEI [XKR6], the median enrichment came to 0.3.

As for “LMGCSLLLSFLGLLCFAVLENHKERNSYGEVRKTEKDSCVKLFFACKLLHFKRPPLFLQRTFFAQLWTLSMVP [DLX5]”, the median enrichment came out at 11.5.

Take “YAQPGPQIRSAQQRPGPSSRTTRPHHASCSQTQN [CCDC27]”: the median enrichment is 0.132.

In the case of “QWRGEGRLGALGGWEMLASKRLTGREAGTCPQHKRQVYPGSL [BTBD18]”, the median enrichment stood at 8.86.

As for LFSFQILGTETI [FBXO4], the median enrichment came to 14.6.

Regarding “LTEPCWPAPTSLCSFLWFLLSFPTLRREIYFTALNSL [UBTD2]”, the median enrichment was 9.94.

In the case of “WRGEGRPAVDSLILGRSLGCAAISFCECANTKLSRAKL [SLC25A25]”, the median enrichment amounted to 6.74.

With “LGGRCRKHLEQPQSHGAEGAGAAPVIGRGIPSVCSASCLLNKGLFLTHK [CUL9]”, the median enrichment was 14.9.

Regarding LNQSVFPACAELLI [ZP4], the median enrichment was 3.4.

Take “QWPHPHWAQARRGPAHAHTTGQGCGAGAIPAPFPGPRGLGSLPSHPGLVPPGAPTVEIRRGWNGGRGGAGGPHPSAALGLGPH [GNB2]”: the median enrichment stood at 7.88.

In the case of YVYLFLQEI [PI15], the median enrichment is 4.25.

In the case of WNFENKI [RNASEH2B], the median enrichment was determined as 0.528.

Consider SGKWCFPQEDYWNWMTSE [ACBD5], for which the median enrichment was 2.

On to YYHMFSWYVN [ABHD10], for which the median enrichment was determined as 17.6.

For the substance GMSFLDLH [LSM5], the median enrichment was 0.489.

For the substance LGSVQGLSH [CST5], the median enrichment was determined as 0.51.

On to SYKQRTSSILRKEML [MEOX2], for which the median enrichment amounted to 5.43.

As to “QLYVGLSLEYVWSPGLSRLEQQSLLLAYHRD [ZFYVE21]”, the median enrichment is 9.76.

In the case of “CAPAERRLETGATASRVQQHSRHGSGRDSAWPRGTFPGQGPGGNWHGLVPLLCCILIPQPAPLGSDLSCPRAEPGGPEGEMNP [ANKRD13B]”, the median enrichment was 6.25.

On to “WWWRHAQWMILLLPATSTSRNESLGGCQELVLAPPPP [MAP4K1]”, for which the median enrichment was 13.

In the case of LEIEKKKRISTQVFFFRNEDKI [ZNF24], the median enrichment was determined as 2.65.

With YRA [SYNE2], the median enrichment came to 0.591.

Consider WGFRSAT [KIF15], for which the median enrichment was 1.06.

“ITGTACLGTRFPPAAVTMVASTATPGVQSTAPCPPCVPRSRGSVHHSSPRWRAGLPGGSPVALPWLWGWRDLARMNPPVPGTL [PIGQ]”: the median enrichment turned out to be 3.37.

As to CCCCCCCC [Cys08], the median enrichment amounted to 8.63.

As to EIKCTRSQ [NLRC4], the median enrichment is 9.53.

As to WHRRTPGDFLYICRLRLFVTSKWDIV [TAF4], the median enrichment was 5.8.

Turning to YTSVLNQDLTQKD [GTF2IRD1], the median enrichment is 0.784.

Take PPPPP [Pro05]: the median enrichment was 0.529.

Take “RCLPRAVDARAPVHTHTSTLTSPQCCASSTRFYSSQNCILNAQETFKLFMKRCVYREEEGANAVRIMFRL [UBE2QL1]”: the median enrichment was 11.9.

On to SGPPPAILSS [CYP4A22], for which the median enrichment came to 0.549.

Regarding “DPTPLWGSGTLHCTGSLHTGRGTCAPTSETCRSPQLTCPTGAQHCTQLVGRTRACLRELPAGVMQGGGEVQGRGAGLSCHQHF [MAP3K11]”, the median enrichment came out at 2.41.

For EKYHLPYAARDLQTFFLPFW [SPAG11A], the median enrichment came out at 6.64.

With YHQNLCQNTKECA [TLL1], the median enrichment was 0.773.

With WTTNTQRNNLFTTPGCMIEGEASTSTSRGP [TTLL5], the median enrichment is 16.4.

For the substance CCQDSCALRCK [MT1X], the median enrichment is 0.374.

Regarding “LGLLPLGPLTLSGWWTTKYNPVYNLKIYFTFVLLYLFIKG [SMAD4]”, the median enrichment was 5.85.

Consider “WGGLGCQCCRDPGCPGLWGRTGSPHPPTPAKGGASPESPPVRPSEPTSHPPSSQGVRAPDGPGRHPGGPATAGEGT [TMEM184A]”, for which the median enrichment was found to be 2.58.

In the case of “LHTELFIDTPHDCISRTHLLIILDPRETITSPSRQWRQIKISAEKEGHVEPQKHFYSG [SNTG1]”, the median enrichment was 9.

For SILFHLILALHLLYISPE [CLRN3], the median enrichment was found to be 9.21.

Consider “ELLGQRLKPQDPCCPSRSFFLESQGKPFRAAPPSGQKLK [ALG1]”, for which the median enrichment is 3.82.

Turning to “RNQVASCPLLRGNPRPLASLPTYKALSQGIAGPRCLDPGCASPSLCSPWKGR [HSPBP1]”, the median enrichment stood at 7.21.

On to SEAPAANTMQARCVSELF [METTL2B], for which the median enrichment turned out to be 0.81.
